According to patent US20110200590A1:
One block for each molecule: values may come before it.

Tests used:
Experiment in all cases: cell-based or functional assay
[1] = target: FcRI (CD64), high affinity immunoglobulin gamma Fc receptor I, on human monocytes (human) (UniProt P12314)
[2] = target: Interleukin-10 (IL-10) released by human monocytes (human) (UniProt P22301)
[3] = target: anti-MBP (105-120) monoclonal IgM Mab 1, clone DM1A2C1

Chain of UniProt P12314 (P12314 16-374 limits assumed, form in doubt): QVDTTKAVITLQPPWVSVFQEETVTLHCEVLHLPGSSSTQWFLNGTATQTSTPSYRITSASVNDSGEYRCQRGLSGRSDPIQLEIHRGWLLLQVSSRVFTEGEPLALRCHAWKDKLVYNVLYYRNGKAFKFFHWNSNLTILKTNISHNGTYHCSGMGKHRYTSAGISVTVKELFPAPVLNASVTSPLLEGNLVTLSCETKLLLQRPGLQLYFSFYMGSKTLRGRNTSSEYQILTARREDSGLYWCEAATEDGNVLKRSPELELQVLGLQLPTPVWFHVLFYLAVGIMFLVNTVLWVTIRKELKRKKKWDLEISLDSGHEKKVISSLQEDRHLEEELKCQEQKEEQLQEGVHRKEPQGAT
Chain of UniProt P22301 (P22301 19-178 limits assumed): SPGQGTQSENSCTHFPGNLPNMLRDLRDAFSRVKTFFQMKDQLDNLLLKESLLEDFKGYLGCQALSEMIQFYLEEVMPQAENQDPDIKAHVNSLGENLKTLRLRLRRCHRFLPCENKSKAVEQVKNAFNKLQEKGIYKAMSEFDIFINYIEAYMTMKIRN

% inhibition of proliferation of human MBP+-T cells (T + PBM + Mab CD64) [1]: 100%
% inhibition of proliferation of human MBP+-T line (T + PBM + Mab CD64) [1]: 98%
Levels of IL-10 in the supernatants of human monocytes (MNC + Mab CD64) [1]: 3950 pg/mL
Levels of IL-10 in the supernatants of human monocytes activated with LPS (MNC + LPS + Mab CD64) [1]: 6360 pg/mL
Molecule: mouse monoclonal antibody anti-human CD64, IgG1 (Ancell)

% inhibition of proliferation of human MBP+-T line by Mab 1 in the presence of Mab IL-10 (T + PBM + Mab 1 + Mab IL-10) [2]: 0%
% inhibition of proliferation of human MBP+-T line by Mab CD64 in the presence of Mab IL-10 (T + PBM + Mab CD64 + Mab IL-10) [2]: 0%
Molecule: neutralising monoclonal antibody anti-human IL-10 (R&D Systems)

% inhibition of proliferation of human MBP+-T cells by Mab 1 in the presence of pep 2 (T + PBM + Mab 1 + pep 2) [3]: 98%
Molecule: QFLGSYL [“scrambled” peptide (QFLGSYL Seq ID no 5)]

% inhibition of proliferation of human MBP+-T cells by Mab 1 in the presence of pep 1 (T + PBM + Mab 1 + pep 1) [3]: 0%
Molecule: GLQLYFS [peptide 222-228 CD64 (GLQLYFS)]
